Measured values from US20240254222A1.
Where a chain is given by its changes, count along the chain named.

B1: TPP-30791 (antibody, human IgG1, kappa, V domains shown)
VH: EVQLVESGGGLLQLGGSLRLSCAASGFTFSSYYMSWVRQAPGKGLEWVSTIIKSGGYAYYPDSVKDRFTISRDNSKNTLNLQMNSLRAEDTAVYYCVKGGQGAMDYWGQGTTVTVSS
VL: EIVLTQSPATLSLSPGERATLSCRASQSIGDYLHWYQQKPGQAPRLLIKYASQSISGIPARFSGSGSGTDFTLTISSLEPEDFAVYYCQQGYSFPYTFGGGTKLEIKR
B2: TPP-30788 (antibody, human IgG1, kappa, V domains shown)
VH: B1 VH with L12V, L14P, N80Y, N84S, K98R
VL: B1 VL with S76T
B3: TPP-30789 (antibody, human IgG1, kappa, V domains shown)
VH: B1 VH with L12V, L14P, T28P, N80Y, N84S, K98R
VL: B1 VL with S76T
B4: TPP-30790 (antibody, human IgG1, kappa, V domains shown)
VH: B1 VH with L12V, N80Y
VL: B1 VL with K49Y

These binders were tested against Human Semaphorin3G (Abnova) (human) (UniProt Q9NS98) (assay: ELISA, coated GST-Sema3G, antibody 0.00015-10 ug/ml).
Sequence of Human Semaphorin3G (Abnova) (human) (Q9NS98 23-782 limits assumed, form in doubt): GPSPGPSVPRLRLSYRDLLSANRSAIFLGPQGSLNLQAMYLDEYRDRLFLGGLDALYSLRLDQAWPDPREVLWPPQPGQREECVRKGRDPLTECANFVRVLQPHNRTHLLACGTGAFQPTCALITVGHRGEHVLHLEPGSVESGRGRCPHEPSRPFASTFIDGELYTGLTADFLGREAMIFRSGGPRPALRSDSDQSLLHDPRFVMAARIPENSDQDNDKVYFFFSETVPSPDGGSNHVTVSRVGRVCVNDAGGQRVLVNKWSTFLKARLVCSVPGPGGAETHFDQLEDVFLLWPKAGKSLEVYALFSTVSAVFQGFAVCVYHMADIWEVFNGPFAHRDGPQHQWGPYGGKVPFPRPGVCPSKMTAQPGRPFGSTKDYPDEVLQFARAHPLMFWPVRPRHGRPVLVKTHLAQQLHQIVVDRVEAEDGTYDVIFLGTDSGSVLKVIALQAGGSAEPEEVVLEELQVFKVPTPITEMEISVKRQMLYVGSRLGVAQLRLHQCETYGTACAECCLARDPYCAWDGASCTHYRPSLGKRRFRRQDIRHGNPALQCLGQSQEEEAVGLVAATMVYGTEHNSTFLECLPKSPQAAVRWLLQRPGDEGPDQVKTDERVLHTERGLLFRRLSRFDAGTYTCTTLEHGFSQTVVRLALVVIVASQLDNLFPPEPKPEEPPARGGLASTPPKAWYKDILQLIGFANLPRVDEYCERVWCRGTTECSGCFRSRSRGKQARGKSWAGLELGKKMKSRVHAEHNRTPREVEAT

| EC50 | Binder |
| --- | --- |
| > 66.7 µM | B1 |
| > 66.7 µM | B2 |
| > 66.7 µM | B3 |
| > 66.7 µM | B4 |
